Laboratory results reported in article PMC6211538.

Columns and labels:
[1] = target: AMPA receptor GluA2 from rat with deletion of the disordered intracellular C-terminal domain (GluA2cryst) (rat) (UniProt P19491); experiment: small-angle neutron scattering (SANS), molecular weight by Fischer analysis; with 1 mM GYKI-53655; 0.31 mg/ml (0.84 uM) GluA2 in D2O-based buffer with 0.5 mM matched-out deuterated DDM; 10°C; oligomeric state from MW against the construct's 368 kDa
[2] = target: AMPA receptor GluA2 from rat with deletion of the disordered intracellular C-terminal domain (GluA2cryst) (rat) (UniProt P19491); experiment: small-angle neutron scattering (SANS), molecular weight by Fischer analysis; with 1 mM AMPA, pH 7.5; 0.31 mg/ml (0.84 uM) GluA2 in D2O-based buffer with 0.5 mM matched-out deuterated DDM; 10°C; oligomeric state from MW against the construct's 368 kDa
[3] = target: AMPA receptor GluA2 from rat with deletion of the disordered intracellular C-terminal domain (GluA2cryst) (rat) (UniProt P19491); experiment: small-angle neutron scattering (SANS), molecular weight by Fischer analysis; with 10 mM AMPA, pH 5.5; 0.17 mg/ml (0.46 uM) GluA2 in D2O-based buffer with 0.5 mM matched-out deuterated DDM; 10°C; oligomeric state from MW against the construct's 368 kDa
[4] = target: AMPA receptor GluA2 from rat with deletion of the disordered intracellular C-terminal domain (GluA2cryst) (rat) (UniProt P19491); experiment: small-angle neutron scattering (SANS), molecular weight by Fischer analysis; resting state (apo); 0.20 mg/ml (0.54 uM) GluA2 in D2O-based buffer, 20 mM Tris-DCl pH 7.5, 100 mM NaCl, 0.5 mM matched-out deuterated DDM; 10°C; oligomeric state from MW against the construct's 368 kDa

stoichiometry N [1]: 4
stoichiometry N [2]: 4
stoichiometry N [3]: 4
stoichiometry N [4]: 4
Substance: AMPA receptor GluA2 from rat with deletion of the disordered intracellular C-terminal domain (GluA2cryst) (from UniProt P19491 22-883)
